# Measured values from patent US20210171624A1 (ELIXIRON IMMUNOTHERAPEUTICS HONG KONG, published 2021).
# Substitutions are numbered along the chain they refer to.
# T1: recombinant human IFN-γ protein (human, UniProt P01579 24-166, limits assumed)
# T1 sequence: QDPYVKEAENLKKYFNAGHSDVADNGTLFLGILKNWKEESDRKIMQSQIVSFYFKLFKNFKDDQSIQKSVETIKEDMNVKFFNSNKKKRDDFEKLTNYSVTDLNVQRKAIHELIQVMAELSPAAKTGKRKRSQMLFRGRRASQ
# T2: rhesus macaque/cynomolgus IFN-γ (rhesus macaque/cynomolgus, UniProt P63310 24-165)
# T2 construct: also called R&D systems 961-RM-025
# T2 sequence (looked up): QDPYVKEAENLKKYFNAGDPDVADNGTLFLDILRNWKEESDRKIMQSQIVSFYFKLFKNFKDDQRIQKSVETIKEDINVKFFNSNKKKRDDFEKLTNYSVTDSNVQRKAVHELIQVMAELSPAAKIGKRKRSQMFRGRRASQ
# B1: antibody 2F2 (antibody, human IgG1, V domains shown)
# VH: EVQLVESGGGLVKPGESLRLACVASGFNFSDYYMTWIRQAPGKGLEWVSYISNSGSHTYYADAVKGRFTVSRDNAKNSLYLQMTSLRGEDTAIYFCARDPSIMRGTYYMDVWGKGTTVTVSS
# VL: QSVLTQPPSASGTPGQRVTISCSGSSSNIGTNPVSWYQQFPGMAPKLLIYFNNQRPSGVPERFSGSKSGTPASLAIGGLQSEDEANYYCASWDDTLNGLVFGGGTKLTVL
# notes: Human IgG1 lambda
# B2: antibody 1E8 (antibody, human IgG1, V domains shown)
# VH: EVQLLESGGGLVQPGGPLRLSCAASGFTFSIYSMNWVRQAPGKGLEWVSSISGSGDNTYYADSVKGRFTITRDSSKNTLYLQMNTLRAEDTAVYFCAKSGRNIISPGFDSWGQGTLVTVSS
# VL: QPVLTQPPSASASLGASVTLTCTLNSDYGDYKVDWYQQRPGKGPRFVMRVGTGGIVGSKGDGIPDRFSVLGSGLNRFLTIKNIQEEDESDYYCGADHGSANNFIWVFGGGTKLTVL
# notes: Human IgG1 lambda
# B3: antibody 2A6 (antibody, human IgG1, V domains shown)
# VH: EVQLVESGGGLVKPGDSLTVSCVASGFTFSNYFIHWVRQAPGKGLEWVATISGRTKYMFYSDSLRGRFTVSRDNANNSVYLHMSSLRGEDTALYYCVRGYDHSDSNSAADLLHWGRGTLVTVSS
# VL: NFMLTQPLSVSGYPGKTIVISCVRSSGSVASHYVQWFQQRPGSAPAMVIYEDSHRPSGIPDRFSGSVDASSNSASLTISGLKTEDEADYFCQSYYGNNQVLFGGGTKLTVL
# modifications: partial N-linked glycosylation at Asn-76 of the VH
# notes: Human antibody from a single B cell, cloned into human IgG1 lambda expression vectors and made in FreeStyle 293-F cells
# B4: antibody 2A6_A (antibody, human IgG1, V domains shown)
# VH: B3 VH with N76A
# VL: B3 VL
# notes: removes the N-glycosylation site of the VH; human IgG1 lambda; also called c2A6_A
# B5: antibody 2A6_Q (antibody, human IgG1, V domains shown)
# VH: B3 VH with N76Q
# VL: B3 VL
# notes: removes the N-glycosylation site of the VH; human IgG1 lambda; also called c2A6_Q
# B6: antibody 2B6 (antibody, human IgG1, V domains shown)
# VH: EVQLVESGGGLVKPGGSLRLSCAASGFPFSRYSMHWVRQAPGKGLEWVSSMTSRTNHKYYADSLKGRFLISRDNDRDSLYLEMNSLGVEDTAIYFCARGYDTSGSDSGVDFQYWGQGTLVTVSS
# VL: NFMLTQPHSVSESPGKTITISCTRGRGYIASYYVQWYQQRPGGVPKIVVFEDTQRPSGVPDRISGSIDTSTNSASLTISGLQTEDEADYYCQSYDDANHVIFGGGTKLTVL
# notes: Human IgG1 lambda
# B7: antibody AB (antibody, human IgG1, V domains shown)
# VH: B3 VH
# VL: B6 VL
# notes: Combination of the 2A6 VH heavy chain and the 2B6 VL light chain; human IgG1 lambda; also called VH2A6/VL2B6
# B8: antibody BA (antibody, human IgG1, V domains shown)
# VH: B6 VH
# VL: B3 VL
# notes: Combination of the 2B6 VH heavy chain and the 2A6 VL light chain; human IgG1 lambda; also called VH2B6/VL2A6
# Experiments:
# [1] = biological target: T1, recombinant human IFN-γ protein; assay: ELISA, biotinylated human IFN-γ on streptavidin plate, HRP anti-human IgG, OD 450-650 nm
# Procedure: (§1) Recombinant human IFN-γ (R&D systems 285-IF-100) and Cynomolgus IFN-γ (R&D systems 961-RM-025) were biotinylated according to kit manual (EZ-Link NHS-LC-Biotin; Thermo #21336) and bound to streptavidin coated plate respectively. After incubated at room temperature for 1-2 hours, the plate was washed three times with 300 μL wash buffer. Serial dilutions of anti-IFN-γ antibody were added to wells. After incubated at room temperature for 1-2 hours, the plate was washed three times with 300 μL wash buffer. HRP anti-Human IgG was applied to each well at room temperature for 1 hour incubation. After washing, the plates were developed with TMB substrate, and analyzed under OD₄₅₀₋₆₅₀.
# [2] = biological target: T1, recombinant human IFN-γ protein; assay: BLI (Octet RED96), mAb captured on AHC biosensor, recombinant human IFN-γ in solution, 1:1 model; second experiment
# Procedure: (§2) Antibody-binding kinetic rate constants (kₐ and kd) were measured by Bio-Layer Interferometry (BLI, ForteBio Octet RED96). […] Rate constants were calculated by curve fitting analyses (1:1 Langmuir model) of binding response with a 5-minute association and 15-minute dissociation interaction time.
# [3] = biological target: T1, recombinant human IFN-γ protein; assay: cell-based or functional assay
# bovine serum albumin = biological target: T3, bovine serum albumin (bovine, UniProt P02769 25-607); assay: ELISA, plate coated with 2 µg/mL BSA, anti-human IgG Fc-AP detection, OD 405 nm
# T3 construct: also called BSA
# Procedure: A clear polystyrene 96-well, flat-bottomed plate (Nunc) was coated with 100 μL of recombinant human IFN-γ protein (2 μg/mL) or BSA (2 μg/mL) in bicarbonate buffer (pH 9.6) per well and incubated at 4° C. overnight. The plate was washed three times using phosphate-buffered saline (PBS) with 0.05% Tween 20 and then blocked with 5% human normal serum albumin (Aventis) in PBS for 2 hours at 25° C. The plate was washed again using PBS with 0.05% Tween 20, after which each of 1E8, 2F2, 2A6, 2B6, AB and BA mAbs in two different concentrations of 1 μg/mL and 0.1 μg/mL were added into the wells of the plate for binding with the recombinant human IFN-γ protein, followed by reaction at 25° C. for 2 hours. The plate was thoroughly washed using PBS with 0.05% Tween 20, and then Fc-specific alkaline phosphatase-conjugated AffiniPure Goat anti-human IgG (Cappel) was added at a dilution ratio of 1:2500. The plate was placed for 90 minutes at 37° C. and then washed five times using PBS with 0.05% Tween 20. After adding p-Nitrophenyl phosphate (pNPP) solution (100 μL/well), the plate was placed at 37° C. for 30 minutes. Absorbance was determined at OD405 nm with a VICTOR X3 Multilabel Plate Reader (PerkinElmer).
# [4] = biological target: T1, recombinant human IFN-γ protein; assay: BLI (Octet RED96), mAb captured on AHC biosensor, recombinant human IFN-γ in solution, 1:1 model
# Procedure: as §2
# [5] = biological target: T2, rhesus macaque/cynomolgus IFN-γ; assay: ELISA, biotinylated rhesus macaque/cynomolgus IFN-γ on streptavidin plate, HRP anti-human IgG, OD 450-650 nm
# Procedure: as §1
# T3 sequence (P02769 25-607 limits assumed): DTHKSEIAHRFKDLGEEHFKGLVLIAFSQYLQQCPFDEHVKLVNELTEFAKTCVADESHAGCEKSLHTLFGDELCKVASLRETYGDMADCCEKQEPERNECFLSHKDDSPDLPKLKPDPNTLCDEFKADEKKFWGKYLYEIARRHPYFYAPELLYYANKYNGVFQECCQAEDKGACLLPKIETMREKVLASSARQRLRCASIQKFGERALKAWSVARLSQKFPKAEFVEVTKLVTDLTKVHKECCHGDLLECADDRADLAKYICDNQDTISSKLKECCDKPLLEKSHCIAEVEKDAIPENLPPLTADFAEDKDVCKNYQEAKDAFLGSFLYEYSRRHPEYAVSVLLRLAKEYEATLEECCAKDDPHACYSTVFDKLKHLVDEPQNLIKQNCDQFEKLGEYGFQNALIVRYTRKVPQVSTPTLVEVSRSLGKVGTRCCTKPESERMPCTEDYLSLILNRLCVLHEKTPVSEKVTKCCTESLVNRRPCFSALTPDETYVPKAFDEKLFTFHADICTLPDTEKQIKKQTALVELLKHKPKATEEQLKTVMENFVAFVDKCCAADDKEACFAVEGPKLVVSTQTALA
Molecule,EC50 (read off the curve) [1] [ng/mL],Kd [2] [nM],koff [2] [s⁻¹],kon [2] [M⁻¹ s⁻¹],"IC50, inhibition of IFN-γ induced HLA-DR expression on THP-1 cells [3] [ng/mL]","IC90, inhibition of IFN-γ induced HLA-DR expression on THP-1 cells [3] [ng/mL]",binding result (bovine serum albumin),Kd [4] [nM],koff [4] [s⁻¹],kon [4] [M⁻¹ s⁻¹],EC50 (read off the curve) [5] [ng/mL]
AMG811 (antibody),5,0.0347,8.59e-05,2.48e+06,–,–,–,–,–,–,–
B1,–,–,–,–,36.1,508,no binding (tested: 1.0 µg/mL),0.317,0.000109,344000,–
B2,–,–,–,–,8.6,48.6,no binding (tested: 1.0 µg/mL),0.261,0.000121,464000,–
B3,~7,0.0187,4.9e-05,2.61e+06,3.4,3850,no binding (tested: 1.0 µg/mL),0.0368,3.97e-05,1.08e+06,~5
B4,~7,0.0223,5.17e-05,2.32e+06,–,–,–,–,–,–,~5
B5,~7,0.0217,5.23e-05,2.41e+06,–,–,–,–,–,–,~5
B6,~7,0.0172,5.4e-05,3.13e+06,3.5,1020,no binding (tested: 1.0 µg/mL),0.0731,0.000108,1.48e+06,~5
B7,~7,0.025,5.46e-05,2.19e+06,–,–,no binding (tested: 1.0 µg/mL),–,–,–,~5
B8,–,–,–,–,–,–,no binding (tested: 1.0 µg/mL),–,–,–,–
